Reference: patent publication US20090324646A1 (INSTITUT PASTEUR, published 2009)
Read-outs that look alike come from different tables or passages of the source.

Columns and labels:
[1] = system: 33P-labeled Erk2 (GST-Erk2 fusion protein phosphorylated in vitro by MEK1)
[2] = biological target: histone H3 purified from calf thymus, P68432
[3] = biological target: 33P-labeled Erk2 (GST-Erk2 fusion protein phosphorylated in vitro by MEK1); remark: listed apart in the source
[4] = biological target: peptide mimicking the histone H3 tail carrying pS10 modification
[5] = biological target: NF-κB p65 (endogenous, Caco 2 nuclear extracts) (human, UniProt Q04206 1-551); assay: supershift EMSA of Caco 2 nuclear extracts with anti-p50 and anti-p65 antibodies
NF-κB p65 (endogenous, Caco 2 nuclear extracts), sequence (Q04206 whole entry): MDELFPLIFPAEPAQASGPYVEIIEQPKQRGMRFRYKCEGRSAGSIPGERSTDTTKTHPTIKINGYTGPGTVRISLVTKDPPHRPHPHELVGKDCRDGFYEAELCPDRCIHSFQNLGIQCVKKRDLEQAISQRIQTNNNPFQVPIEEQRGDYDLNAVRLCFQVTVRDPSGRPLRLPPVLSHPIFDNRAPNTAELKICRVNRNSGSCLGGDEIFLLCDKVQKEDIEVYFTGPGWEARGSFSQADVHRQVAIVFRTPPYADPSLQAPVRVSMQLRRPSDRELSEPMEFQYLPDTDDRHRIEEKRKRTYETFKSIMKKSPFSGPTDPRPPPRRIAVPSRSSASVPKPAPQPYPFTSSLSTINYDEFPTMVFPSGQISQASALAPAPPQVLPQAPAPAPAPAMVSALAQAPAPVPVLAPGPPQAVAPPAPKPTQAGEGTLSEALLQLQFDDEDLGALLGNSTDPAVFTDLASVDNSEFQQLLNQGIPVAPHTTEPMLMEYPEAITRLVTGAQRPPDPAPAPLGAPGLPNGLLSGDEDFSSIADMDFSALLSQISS

B1: MKP1 (mammalian dual specific phosphatase, Upstate Cell Signaling) (enzyme, UniProt P28562 1-367, looked up, species assumed)
Dual specificity protein phosphatase 1: MVMEVGTLDAGGLRALLGERAAQCLLLDCRSFFAFNAGHIAGSVNVRFSTIVRRRAKGAMGLEHIVPNAELRGRLLAGAYHAVVLLDERSAALDGAKRDGTLALAAGALCREARAAQVFFLKGGYEAFSASCPELCSKQSTPMGLSLPLSTSVPDSAESGCSSCSTPLYDQGGPVEILPFLYLGSAYHASRKDMLDALGITALINVSANCPNHFEGHYQYKSIPVEDNHKADISSWFNEAIDFIDSIKNAGGRVFVHCQAGISRSATICLAYLMRTNRVKLDEAFEFVKQRRSIISPNFSFMGQLLQFESQVLAPHCSAEAGSPAMAVLDRGTSTTTVFNFPVSIPVHSTNSALSYLQSPITTSPSC
Which results are given for B1?
Km [1]: 0.229 µM; Vmax [1]: 6.01 pM/s; dephosphorylation of 33P-labeled Erk2 (gel mobility in SDS-PAGE/autoradiography, Western blot) [1]: Dephosphorylation of Erk2 by both enzymes was confirmed; kcat [1]: 0.0006 s⁻¹

B2: OspF phosphatase (purified recombinant protein) (protein)
chain: MPIKKPCLKLNLDSLNVVRSEIPQMLSANERLKNNFNILYNQIRQYPAYYFKVASNVPTYSDICQSFSVMYQGFQIVNHSGDVFIHACRENPQSKGDFVGDKFHISIAREQVPLAFQILSGLLFSEDSPIDKWKITDMNRVSQQSRVGIGAQFTLYVKSDQECSQYSALLLHKIRQFIMCLESNLLRSKIAPGEYPASDVRPEDWKYVSYRNELRSDRDGSERQEQMLREEPFYRLMIE
Which “in vitro dephosphorylation (Western blot, anti-metK9-pS10 antibody)” value [2] does the source give for B2 here?
Its value is “OspF did not directly dephosphorylate these substrates, even when the enzyme concentration was increased 100 fold”.

What about the Km [3] of the same binder?
Its Km is 0.204 µM.

And the Vmax [3]?
The Vmax was 9.89 pM/s.

And the “dephosphorylation of 33P-labeled Erk2 (gel mobility in SDS-PAGE/autoradiography, Western blot)” value [3]?
The value was “Dephosphorylation of Erk2 by both enzymes was confirmed”.

And the kcat [3]?
Its kcat is 0.0001 s⁻¹.

And the “in vitro dephosphorylation of peptide” value [4]?
Its value is “OspF did not directly dephosphorylate these substrates, even when the enzyme concentration was increased 100 fold”.

B3: lambda phosphatase (protein)
chain: MRYYEKIDGSKYRNIWVVGDLHGCYTNLMNKLDTIGFDNKKDLLISVGDLVDRGAENVECLELITFPWFRAVRGNHEQMMIDGLSERGNVNHWLLNGGGWFFNLDYDKEILAKALAHKADELPLIIELVSKDKKYVICHADYPFDEYEFGKPVDHQQVIWNRERISNSQNGIVKEIKGADTFIFGHTPAVKPLKFANQMYIDTGAVFCGNLTLIQVQGEGA
How did the “in vitro dephosphorylation (Western blot, anti-metK9-pS10 antibody)” value [2] turn out when B3 was run?
Its value is “in contrast to the lambda phosphatase, OspF did not directly dephosphorylate these substrates”.

And the “in vitro dephosphorylation of peptide” value [4]?
Its value is “in contrast to the lambda phosphatase, OspF did not directly dephosphorylate these substrates”.

B4: NF-κB p50 (endogenous, Caco 2 nuclear extracts) (other)
chain: MAEDDPYLGRPEQMFHLDPSLTHTIFNPEVFQPQMALPTDGPYLQILEQPKQRGFRFRYVCEGPSHGGLPGASSEKNKKSYPQVKICNYVGPAKVIVQLVTNGKNIHLHAHSLVGKHCEDGICTVTAGPKDMVVGFANLGILHVTKKKVFETLEARMTEACIRGYNPGLLVHPDLAYLQAEGGGDRQLGDREKELIRQAALQQTKEMDLSVVRLMFTAFLPDSTGSFTRRLEPVVSDAIYDSKAPNASNLKIVRMDRTAGCVTGGEEIYLLCDKVQKDDIQIRFYEEEENGGVWEGFGDFSPTDVHRQFAIVFKTPKYKDINITKPASVFVQLRRKSDLETSEPKPFLYYPEIKDKEEVQRKRQKLMPNFSDSFGGGSGAGAGGGGMFGSGGGGGGTGSTGPGYSFPHYGFPTYGGITFHPGTTKSNAGMKHG
Does B4 bind [5]?
Result: binds
